{"source": "paper doi:10.1101/2024.10.14.618219", "about": "(bioRxiv, 2024)", "binders": {"B1": {"name": "Kap3 (natural protein, human, UniProt Q92845 1-792, looked up)", "chain": "MQGEDARYLKRKVKGGNIDVHPSEKALIVHYEVEATILGEMGDPMLGERKECQKIIRLKSLNANTDITSLARKVVEECKLIHPSKLNEVEQLLYYLQNRRDSLSGKEKKEKSSKPKDPPPFEGMEIDEVANINDMDEYIELLYEDIPDKVRGSALILQLARNPDNLEELLLNETALGALARVLREDWKQSVELATNIIYIFFCFSSFSQFHGLITHYKIGALCMNIIDHELKRHELWQEELSKKKKAVDEDPENQTLRKDYEKTFKKYQGLVVKQEQLLRVALYLLLNLAEDTRTELKMRNKNIVHMLVKALDRDNFELLILVVSFLKKLSIFMENKNDMVEMDIVEKLVKMIPCEHEDLLNITLRLLLNLSFDTGLRNKMVQVGLLPKLTALLGNDNYKQIAMCVLYHISMDDRFKSMFAYTDCIPQLMKMLFECSDERIDLELISFCINLAANKRNVQLICEGNGLKMLMKRALKFKDPLLMKMIRNISQHDGPTKNLFIDYVGDLAAQISNDEEEEFVIECLGTLANLTIPDLDWELVLKEYKLVPYLKDKLKPGAAEDDLVLEVVIMIGTVSMDDSCAALLAKSGIIPALIELLNAQQEDDEFVCQIIYVFYQMVFHQATRDVIIKETQAPAYLIDLMHDKNNEIRKVCDNTLDIIAEYDEEWAKKIQSEKFRWHNSQWLEMVESRQMDESEQYLYGDDRIEPYIHEGDILERPDLFYNSDGLIASEGAISPDFFNDYHLQNGDVVGQHSFPGSLGMDGFGQPVGILGRPATAYGFRPDEPYYYGYGS", "modifications": "SNAPf tag labeled with TMR in the co-localization assay"}}, "test_in_all_cases": "single-molecule TIRF co-localization", "key": {"Kif3A-Kif3B^ΔC114": {"molecular_target": "Kif3A-Kif3B^ΔC114 (human, UniProt Q9Y496 1-699; O15066 1-633, SNAPf tag labeled with Alexa 647)", "sequence (Q9Y496 whole entry, stated change not applied, chain 1 of 2)": "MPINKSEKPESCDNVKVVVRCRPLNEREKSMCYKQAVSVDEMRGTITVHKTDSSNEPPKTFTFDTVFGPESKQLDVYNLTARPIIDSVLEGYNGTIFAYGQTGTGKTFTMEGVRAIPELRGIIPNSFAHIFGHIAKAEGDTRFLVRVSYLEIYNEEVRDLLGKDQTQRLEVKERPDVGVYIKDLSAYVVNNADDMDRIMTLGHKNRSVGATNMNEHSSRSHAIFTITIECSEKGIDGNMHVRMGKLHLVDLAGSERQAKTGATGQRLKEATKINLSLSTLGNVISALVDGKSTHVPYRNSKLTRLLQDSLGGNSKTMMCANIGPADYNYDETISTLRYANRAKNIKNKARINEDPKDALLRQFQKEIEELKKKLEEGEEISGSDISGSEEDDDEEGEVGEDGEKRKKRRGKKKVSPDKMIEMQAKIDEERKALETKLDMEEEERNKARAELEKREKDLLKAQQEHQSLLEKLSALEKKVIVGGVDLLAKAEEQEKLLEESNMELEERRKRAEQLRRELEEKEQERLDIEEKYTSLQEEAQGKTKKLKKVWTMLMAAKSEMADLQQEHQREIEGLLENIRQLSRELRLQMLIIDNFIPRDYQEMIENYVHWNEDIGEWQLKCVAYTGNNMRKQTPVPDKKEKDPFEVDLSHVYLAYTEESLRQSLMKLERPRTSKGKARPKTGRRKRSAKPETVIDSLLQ", "sequence (O15066 1-633, stated change not applied, chain 2 of 2)": "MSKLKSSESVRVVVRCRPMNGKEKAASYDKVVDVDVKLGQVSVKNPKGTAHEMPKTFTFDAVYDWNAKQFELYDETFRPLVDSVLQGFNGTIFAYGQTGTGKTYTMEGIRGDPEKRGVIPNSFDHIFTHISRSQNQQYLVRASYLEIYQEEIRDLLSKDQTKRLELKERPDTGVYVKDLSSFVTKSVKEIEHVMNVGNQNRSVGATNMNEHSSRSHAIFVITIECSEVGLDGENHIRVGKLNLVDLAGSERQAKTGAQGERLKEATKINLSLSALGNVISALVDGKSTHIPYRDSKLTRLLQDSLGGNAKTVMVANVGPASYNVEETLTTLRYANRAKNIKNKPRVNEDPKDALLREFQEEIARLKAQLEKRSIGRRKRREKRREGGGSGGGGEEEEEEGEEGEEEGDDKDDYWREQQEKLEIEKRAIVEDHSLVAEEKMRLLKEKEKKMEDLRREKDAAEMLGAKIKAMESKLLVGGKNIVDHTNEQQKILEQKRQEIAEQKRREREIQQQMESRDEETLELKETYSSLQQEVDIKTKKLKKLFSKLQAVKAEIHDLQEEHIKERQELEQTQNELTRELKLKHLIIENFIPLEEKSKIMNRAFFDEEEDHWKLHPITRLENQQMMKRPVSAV"}, "Kif3A^ΔC89-Kif3B": {"molecular_target": "Kif3A^ΔC89-Kif3B (human, UniProt Q9Y496 1-610; O15066 1-747, SNAPf tag labeled with Alexa 647)", "sequence (Q9Y496 1-610, stated change not applied, chain 1 of 2)": "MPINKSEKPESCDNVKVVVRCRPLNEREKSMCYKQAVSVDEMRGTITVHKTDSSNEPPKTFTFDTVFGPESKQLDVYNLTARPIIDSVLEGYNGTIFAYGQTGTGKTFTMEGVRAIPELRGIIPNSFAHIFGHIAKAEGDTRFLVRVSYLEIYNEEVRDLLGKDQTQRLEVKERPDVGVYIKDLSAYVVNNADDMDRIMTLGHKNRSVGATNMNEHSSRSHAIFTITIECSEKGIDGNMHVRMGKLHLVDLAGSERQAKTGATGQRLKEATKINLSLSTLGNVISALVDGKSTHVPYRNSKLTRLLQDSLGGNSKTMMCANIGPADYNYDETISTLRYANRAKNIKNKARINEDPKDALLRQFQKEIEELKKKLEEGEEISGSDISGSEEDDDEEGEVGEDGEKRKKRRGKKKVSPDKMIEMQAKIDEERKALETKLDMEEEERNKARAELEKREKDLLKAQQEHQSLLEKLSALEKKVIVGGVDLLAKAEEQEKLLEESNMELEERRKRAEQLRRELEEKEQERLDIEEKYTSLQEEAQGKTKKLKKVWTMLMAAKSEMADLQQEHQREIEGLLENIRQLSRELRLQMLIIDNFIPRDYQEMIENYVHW", "sequence (O15066 whole entry, stated change not applied, chain 2 of 2)": "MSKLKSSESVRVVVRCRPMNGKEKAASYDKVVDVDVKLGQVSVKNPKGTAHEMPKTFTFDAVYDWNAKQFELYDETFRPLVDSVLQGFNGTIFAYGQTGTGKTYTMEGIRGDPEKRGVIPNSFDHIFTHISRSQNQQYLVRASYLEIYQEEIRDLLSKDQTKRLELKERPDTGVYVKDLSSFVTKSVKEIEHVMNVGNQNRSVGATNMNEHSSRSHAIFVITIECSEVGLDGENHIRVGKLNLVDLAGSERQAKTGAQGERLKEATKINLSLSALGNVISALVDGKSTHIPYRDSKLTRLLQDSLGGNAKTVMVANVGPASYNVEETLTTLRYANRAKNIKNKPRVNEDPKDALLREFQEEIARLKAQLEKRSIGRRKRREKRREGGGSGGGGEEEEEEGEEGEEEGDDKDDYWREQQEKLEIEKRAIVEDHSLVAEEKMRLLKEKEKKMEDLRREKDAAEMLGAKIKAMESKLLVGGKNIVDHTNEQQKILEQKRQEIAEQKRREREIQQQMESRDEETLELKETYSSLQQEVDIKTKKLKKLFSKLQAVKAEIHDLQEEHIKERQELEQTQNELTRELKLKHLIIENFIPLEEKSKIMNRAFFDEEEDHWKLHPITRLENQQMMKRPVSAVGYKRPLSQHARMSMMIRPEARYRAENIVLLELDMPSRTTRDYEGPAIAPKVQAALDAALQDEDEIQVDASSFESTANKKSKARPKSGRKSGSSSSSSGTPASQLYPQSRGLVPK"}, "Kif3A-Kif3B^ΔC90": {"molecular_target": "Kif3A-Kif3B^ΔC90 (human, UniProt Q9Y496 1-699; O15066 1-657, SNAPf tag labeled with Alexa 647)", "sequence (Q9Y496 whole entry, stated change not applied, chain 1 of 2)": "as the sequence (Q9Y496 whole entry, stated change not applied, chain 1 of 2) above", "sequence (O15066 1-657, stated change not applied, chain 2 of 2)": "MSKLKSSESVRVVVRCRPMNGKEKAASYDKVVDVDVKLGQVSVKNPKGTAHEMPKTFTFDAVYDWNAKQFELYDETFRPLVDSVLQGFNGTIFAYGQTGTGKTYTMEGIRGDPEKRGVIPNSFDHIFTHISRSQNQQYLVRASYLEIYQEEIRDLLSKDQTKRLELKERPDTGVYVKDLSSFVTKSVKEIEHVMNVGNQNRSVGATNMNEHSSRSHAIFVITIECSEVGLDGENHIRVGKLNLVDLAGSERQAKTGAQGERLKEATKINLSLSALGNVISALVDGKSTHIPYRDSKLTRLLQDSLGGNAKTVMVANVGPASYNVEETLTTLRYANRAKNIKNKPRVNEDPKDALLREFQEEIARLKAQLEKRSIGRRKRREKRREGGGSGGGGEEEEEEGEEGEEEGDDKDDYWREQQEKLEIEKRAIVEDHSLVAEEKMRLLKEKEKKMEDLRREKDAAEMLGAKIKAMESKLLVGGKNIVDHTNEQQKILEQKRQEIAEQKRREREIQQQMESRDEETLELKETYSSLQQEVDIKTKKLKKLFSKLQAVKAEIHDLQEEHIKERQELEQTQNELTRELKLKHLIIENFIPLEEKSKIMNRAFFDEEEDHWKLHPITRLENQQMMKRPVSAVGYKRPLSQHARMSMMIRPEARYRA"}}, "data": [{"binder": "B1", "values": [{"measurement": "percent of Kif3AB molecules with Kap3 co-localized", "setting": "Kif3A-Kif3B^ΔC114", "value": 50, "unit": "%"}, {"measurement": "percent of Kif3AB molecules with Kap3 co-localized", "setting": "Kif3A^ΔC89-Kif3B", "value": 26, "unit": "%"}, {"measurement": "percent of Kif3AB molecules with Kap3 co-localized", "setting": "Kif3A-Kif3B^ΔC90", "value": 62, "unit": "%"}]}]}
